Data on 1 protein can be found in patent US7608407B2, “Fluorescence polarization assay for determining histidine decarboxylase activity” (Boehringer Ingelheim Pharmaceuticals, Inc., priority 2004, dated 2009).

Substrate in this series: N[C@@H](Cc1c[nH]cn1)C(=O)O
Put plainly: Km of HDC for its substrate histidine. Format: biochemical, human. The following applies: other: 54 Kd form, data not shown.

B1: HDC (54 Kd form) (Homo sapiens; S148Q) (protein)
chain: MMEPEEYRERGREMVDYICQYLSTVRERRVTPDVQPGYLRAQLPESAPEDPDSWDSIFGDIERIIMPGVVHWQSPHMHAYYPALTSWPSLLGDMLADAINCLGFTWASSPACTELEMNVMDWLAKMLGLPEHFLHHHPSSQGGGVLQQTVSESTLIALLAARKNKILEMKTSEPDADESCLNARLVAYASDQAHSSVEKAGLISLVKMKFLPVDDNFSLRGEALQKAIEEDKQRGLVPVFVCATLGTTGVCAFDCLSELGPICAREGLWLHIDAAYAGTAFLCPEFRGFLKGIEYADSFTFNPSKWMMVHFDCTGFWVKDKYKLQQTFSVNPIYLRHANSGVATDFMHWQIPLSRRFRSVKLWFVIRSFGVKNLQAHVRHGTEMAKYFESLVRNDPSFEIPAKRHLGLVVFRLKGPNCLTENVLKEIAKAGRLFLIPATIQDKLIIRFTVTSQFTTRDDILRDWNLIRDAATLILSQ
In the case of B1, the Michaelis-Menten constant (Km) is 275 µM.
